According to the supplement of paper PMC12042874:
± gives the uncertainty stated by the source.

Assay: amyloid nucleation score (Sup35N fusion, yeast selection) (log enrichment); library NNK1; higher = more nucleation; inactive = no reads after selection
Procedure, shortened: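 On medium lacking adenine and uracil, psi-negative yeast expressing peptides of 20 random codons fused to Sup35N were grown 7 days at 30°C after a 24-hour induction with 100 μM copper sulfate. Illumina sequencing of input and output plasmid inserts gave the reads, and sequences under 100 input reads were excluded. The nucleation score is the DiMSum log enrichment of output over input reads, centred on the mode score of non-aggregating sequences.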

For FITYRGSKVRAFLSR, which amyloid nucleation score is on record?
The amyloid nucleation score was -1.46 ± 0.9.

With FKCRACMLYDVYIAERWVTG as the substance, how does the amyloid nucleation score read?
The amyloid nucleation score was -0.022 ± 0.37.

Which amyloid nucleation score does the source give for FKCYWAVCIELWYGCSTVGL here?
Its amyloid nucleation score is 0.588 ± 1.2.

For FKEYQRNA, which amyloid nucleation score is on record?
The amyloid nucleation score was -1.04 ± 2.7.

For FKGQSVCFDLVGWFEVLCQG, which amyloid nucleation score is on record?
The amyloid nucleation score was -0.381 ± 0.85.

For FKLAIVSIFCINSWYNESLR, which amyloid nucleation score is on record?
Its amyloid nucleation score is 5.866 ± 0.049.

With FKTDRGTRHFDFYYCV as the substance, how does the amyloid nucleation score read?
The amyloid nucleation score was 0.395 ± 0.21.

For FKVSVALSWDDVSQFGYGYG, which amyloid nucleation score is on record?
The amyloid nucleation score was 0.117 ± 0.65.

With FLATYLMEVYMMDSWNF as the substance, how does the amyloid nucleation score read?
The amyloid nucleation score was -1.65 ± 1.4.

Which amyloid nucleation score does the source give for FLAVIGAPNRCDFGQSMLRM here?
The amyloid nucleation score was 3.51 ± 0.081.

With FLFRGV as the substance, how does the amyloid nucleation score read?
Its amyloid nucleation score is -0.28 ± 0.91.

With FLIEMCYV as the substance, how does the amyloid nucleation score read?
Its amyloid nucleation score is -0.484 ± 0.88.

With FLIFKSCLVGILRSSNKIGC as the substance, how does the amyloid nucleation score read?
The amyloid nucleation score was -0.469 ± 1.1.

With FLIYVQYTKYSLWAPVFIHR as the substance, how does the amyloid nucleation score read?
The amyloid nucleation score was “inactive”.

With FLKKGERTIF as the substance, how does the amyloid nucleation score read?
The amyloid nucleation score was -0.446 ± 1.

For FLLHF, which amyloid nucleation score is on record?
The amyloid nucleation score was -0.177 ± 0.62.

Which amyloid nucleation score does the source give for FLMGTFDCCTVSVLFFAGK here?
The amyloid nucleation score was 5.44 ± 0.055.

With FLQEVITDLKSVW as the substance, how does the amyloid nucleation score read?
The amyloid nucleation score was 3.08 ± 0.12.

Which amyloid nucleation score does the source give for FLQSIEGRSETGRMSRAISV here?
Its amyloid nucleation score is 1.08 ± 0.93.

Which amyloid nucleation score does the source give for FLRLAWGFLIMHEIRYAGWS here?
The amyloid nucleation score was 0.413 ± 1.2.

For FLSCFDILLHGVSYNSFQYW, which amyloid nucleation score is on record?
Its amyloid nucleation score is 0.54 ± 0.42.

Which amyloid nucleation score does the source give for FLSEMWTKVICWVCCCPVYA here?
Its amyloid nucleation score is 4.64 ± 0.062.

With FLSTCGCFRKLGWVMCECLG as the substance, how does the amyloid nucleation score read?
The amyloid nucleation score was -0.19 ± 0.47.

Which amyloid nucleation score does the source give for FLTNNLYCTPYF here?
The amyloid nucleation score was 3.19 ± 0.079.

For FLVNFGWRFAD, which amyloid nucleation score is on record?
Its amyloid nucleation score is 1.14 ± 0.32.

For FLWSYWPCSVGTEMTSQVRI, which amyloid nucleation score is on record?
The amyloid nucleation score was -0.459 ± 0.82.

Which amyloid nucleation score does the source give for FLYDYYG here?
The amyloid nucleation score was “inactive”.

With FMCTINKFLYTVACPWHYLP as the substance, how does the amyloid nucleation score read?
Its amyloid nucleation score is 3.96 ± 0.16.

For FMIAFVFSKTRGQSIVSYSV, which amyloid nucleation score is on record?
The amyloid nucleation score was -0.747 ± 0.85.

Which amyloid nucleation score does the source give for FMRYNCNCKWDYFFRDCPAG here?
Its amyloid nucleation score is -0.357 ± 0.36.

Which amyloid nucleation score does the source give for FMSNIDLFTGFLRDMWFIIF here?
Its amyloid nucleation score is -0.312 ± 0.55.

Which amyloid nucleation score does the source give for FMSYD here?
The amyloid nucleation score was 0.362 ± 0.79.

With FMTEWSVTFMRMYMAYLGSV as the substance, how does the amyloid nucleation score read?
The amyloid nucleation score was 0.424 ± 0.29.

With FMYKMGSYGMDM as the substance, how does the amyloid nucleation score read?
The amyloid nucleation score was -0.57 ± 0.5.

For FNAIWVVLRVRNREYKTSVL, which amyloid nucleation score is on record?
Its amyloid nucleation score is 1.03 ± 0.7.

With FNCRVNFFDSVGY as the substance, how does the amyloid nucleation score read?
The amyloid nucleation score was 3.28 ± 0.16.

With FNDEHKSSIG as the substance, how does the amyloid nucleation score read?
Its amyloid nucleation score is -0.549 ± 0.58.

Which amyloid nucleation score does the source give for FNDQVQTWWLSYFEAPRYFK here?
The amyloid nucleation score was -1.29 ± 2.4.

For FNKVSAMDEAREYGVEVVAV, which amyloid nucleation score is on record?
The amyloid nucleation score was 5.46 ± 0.073.

For FNLFVTFSMLRPWSAVPMLA, which amyloid nucleation score is on record?
Its amyloid nucleation score is 0.338 ± 0.81.

With FNLITSD as the substance, how does the amyloid nucleation score read?
The amyloid nucleation score was 0.074 ± 0.52.

With FNLVKT as the substance, how does the amyloid nucleation score read?
The amyloid nucleation score was 0.704 ± 0.69.

With FNMENVGKSQSRAAVRVRH as the substance, how does the amyloid nucleation score read?
The amyloid nucleation score was 0.961 ± 0.42.

Which amyloid nucleation score does the source give for FNMNHGMVSVRVEDRISRAC here?
The amyloid nucleation score was 0.579 ± 0.28.

Which amyloid nucleation score does the source give for FNMPDKQILKLESLWHGMVA here?
Its amyloid nucleation score is “inactive”.

For FNRLSCFFSKSHPVQTGYNS, which amyloid nucleation score is on record?
Its amyloid nucleation score is -0.01 ± 0.51.

With FNRNNMKYQYFLKRIYMNW as the substance, how does the amyloid nucleation score read?
The amyloid nucleation score was -0.338 ± 1.4.

With FNRSLLLALVSAFENGLLSW as the substance, how does the amyloid nucleation score read?
The amyloid nucleation score was 0.51 ± 1.2.

Which amyloid nucleation score does the source give for FNYIFRWLVMGTGSCTGS here?
Its amyloid nucleation score is 0.45 ± 0.29.

For FPILVCVLKVLDVVLSDRVL, which amyloid nucleation score is on record?
The amyloid nucleation score was “inactive”.

For FQCDVIYA, which amyloid nucleation score is on record?
Its amyloid nucleation score is -0.72 ± 0.52.

With FQGLSFKHGAIGSAYSQSFD as the substance, how does the amyloid nucleation score read?
The amyloid nucleation score was “inactive”.

Which amyloid nucleation score does the source give for FQRTGQKMWNNKKCSGRQHD here?
Its amyloid nucleation score is -0.648 ± 0.51.

For FQSECSCIPKAWSVFMGTAG, which amyloid nucleation score is on record?
The amyloid nucleation score was -0.476 ± 0.58.

With FRCYVFANCD as the substance, how does the amyloid nucleation score read?
The amyloid nucleation score was 1.59 ± 0.4.

Which amyloid nucleation score does the source give for FRDYLAKPCGGWEEYLVDDT here?
The amyloid nucleation score was 0.68 ± 0.48.

For FRHPMTDDDTPWKAARFVE, which amyloid nucleation score is on record?
The amyloid nucleation score was -1.6 ± 2.4.

Which amyloid nucleation score does the source give for FRMGFISYQTQTLTSRVFSF here?
The amyloid nucleation score was 2.73 ± 0.19.

Which amyloid nucleation score does the source give for FRSFGVR here?
The amyloid nucleation score was 0.924 ± 0.97.

For FRSLFYVFHYLECFYL, which amyloid nucleation score is on record?
Its amyloid nucleation score is 3.52 ± 0.12.

For FRTSVDNLIGSENRISLRTS, which amyloid nucleation score is on record?
The amyloid nucleation score was 0.541 ± 0.68.

With FRTYIFP as the substance, how does the amyloid nucleation score read?
Its amyloid nucleation score is -0.091 ± 0.51.

Which amyloid nucleation score does the source give for FRVMDRVGSCLIVELTPG here?
The amyloid nucleation score was 0.084 ± 0.55.

With FRVMNRGAFYMRFKLG as the substance, how does the amyloid nucleation score read?
The amyloid nucleation score was 1.04 ± 0.67.

Which amyloid nucleation score does the source give for FRVNCVAWDASGTYTYGR here?
Its amyloid nucleation score is 0.525 ± 0.4.

For FRVYVSCVLCNDCVVYHRFE, which amyloid nucleation score is on record?
Its amyloid nucleation score is 7.602 ± 0.072.

With FRYSSDWWSYS as the substance, how does the amyloid nucleation score read?
The amyloid nucleation score was -0.834 ± 1.4.

With FSADVIFPCISSTLQKPPWW as the substance, how does the amyloid nucleation score read?
Its amyloid nucleation score is -0.081 ± 0.54.

With FSALYPGREISA as the substance, how does the amyloid nucleation score read?
Its amyloid nucleation score is 1.51 ± 0.84.

Which amyloid nucleation score does the source give for FSDCCLSAKRA here?
The amyloid nucleation score was -0.46 ± 0.73.

With FSDFN as the substance, how does the amyloid nucleation score read?
The amyloid nucleation score was -0.3 ± 0.42.

For FSEVSNWVFLNIYYVAFF, which amyloid nucleation score is on record?
Its amyloid nucleation score is 0.934 ± 0.25.

Which amyloid nucleation score does the source give for FSGVMLPVLIISRF here?
The amyloid nucleation score was “inactive”.

Which amyloid nucleation score does the source give for FSHLFHQY here?
The amyloid nucleation score was 2.13 ± 0.57.

Which amyloid nucleation score does the source give for FSKQTPVASEG here?
Its amyloid nucleation score is “inactive”.

Which amyloid nucleation score does the source give for FSLRLRDSWWAHSGRLYAYK here?
Its amyloid nucleation score is -0.428 ± 0.56.

For FSSIIG, which amyloid nucleation score is on record?
Its amyloid nucleation score is -0.528 ± 0.4.

For FSTMAYTWVLYTSWACAGAS, which amyloid nucleation score is on record?
The amyloid nucleation score was 0.075 ± 0.69.

For FSTVILSAYSAFSFGIYLLS, which amyloid nucleation score is on record?
Its amyloid nucleation score is 1.46 ± 0.33.

For FSWCGWQRRSSVVAGSRILW, which amyloid nucleation score is on record?
Its amyloid nucleation score is -0.118 ± 1.1.

For FSYYVKGDGKERVGWMASIM, which amyloid nucleation score is on record?
The amyloid nucleation score was -0.94 ± 0.94.

Which amyloid nucleation score does the source give for FTDTICCIVMQFKPKRSGSS here?
The amyloid nucleation score was 4.87 ± 0.088.

For FTFNYIATVSQLPGFGVIHS, which amyloid nucleation score is on record?
Its amyloid nucleation score is 0.343 ± 0.7.

For FTGCGLSPMGT, which amyloid nucleation score is on record?
Its amyloid nucleation score is 1.05 ± 0.73.

Which amyloid nucleation score does the source give for FTGRNSNMIFLSYWVCYYQN here?
Its amyloid nucleation score is 6.983 ± 0.05.

For FTNPRINMSRFSLSFCPARY, which amyloid nucleation score is on record?
The amyloid nucleation score was 2.1 ± 0.25.
